Measured values: the DeepSol protein solubility set

Assay: soluble on expression in E. coli; label from the status in PepcDB or PDB records

| Sequence | soluble on expression in E. coli |
| --- | --- |
| MFGIFDKGQKIKGTVVLMPKNVLDFNAITSIGKGGVIDTATGILGQGVSLVGGVIDTATSFLGRNISMQLISATQTDGSGNGKVGKEVYLEKHLPTLPTLGARQDAFSIFFEWDASFGIPGAFYIKNFMTDEFFLVSVKLEDIPNHGTIEFVCNSWVYNFRSYKKNRIFFVNDTYLPSATPAPLLKYRKEEFEVLRGDGTGKRKDFDRIYDYDVYNDLGNPDGGDPRPILGGCSIYPYPLRVRTGRERTRTDPNSEKPGEVYVPRDENFGHLKSSDFLTYGIKSLSHDVIPLFKSAIFQLRVTSSEFESFEDVRSLYEGGIKLPTDILSQISPLPALKEIFRTDGENVLQFPPPHVAKVSKSGVMTDEEFAREVIAGVNPNVIRRLQEFPPKSTLDPTLYGDQTSTITKEQLEINMGGVTVEEALSTQRLFILDYQDAFIPYLTRINSLPTAKAYATRTILFLKDDGTLKPLAIELSKPHPDGDNLGPESIVVLPATEGVDSTIWLLAKAHVIVNDSGYHQLVSHWLNTHAVMEPFAIATNRHLSVLHPIYKLLYPHYRDTININGLARQSLINADGIIEKSFLPGKYSIEMSSSVYKNWVFTHQALPADLVKRGLAIEDPSAPHGLRLVIEDYPYAVDGLEIWDAIKTWVHEYVSLYYPTDAAVQQDTELQAWWKEAVEKGHGDLKEKPWWPKKQTTEDLIQSCSIIVWTASALHAAVNFGQYPYGGLILNRPTLARRFIPAEGTPEYDEMVKNPQKAYLRTITPKFETLIDLSVIEILSRHASDEIYLGERETPNWTTDKKALEAFKRFGSKLTGIEGKINARNSDPSLRNRTGPVQLPYTLLHRSSEEGLTFKGIPNSISI | soluble |
| MFGKQLFEEVGSKISETIANSPAKDVEKNIKAMLGGAFNRMDLVTREEFDIQQQVLIKTRTKLAALEARLEKLEAAQNPERAALEAAEAAAE | not soluble |
| MFHVKLTLTTMLDTMNSSAHRPVVVADVDTGIDDALAITYLGYLHRRGLIELRITTSAGNCTAEQAAANSAEIMNSLTLSDVPITPGAPKPRALPLTTTPETHGPTGLGYHTTRATIPQLSNAAAAVDLWKGADYLLVAGPATNVAWAAENAPEVLNAIPHVTFMTGAFHYPGNTTPTAEWNAWVDPHALKEALAHYRGHAVRPTICPLNVTESVLLTPQRLKQWCQRSQEPVLPILSDALRFYFEFHESVGVGYMAQIHDLAAAMVLLNRVPHTTRPGFVDVEADAELTRGTTVVDWDSNYGDHPANAQILTALQSEDVFAEFERVVLEY | not soluble |
| MFIDTSELCDLYAEQVDVVEPIFSSFGGVSNFYGKVTTVKCFESNGLIAEVLEENGEGRVLVIDGGGAVRRGLIDAELAQLAVDNGWEGIIVYGAVRQIQQLENLDIGIHALAPIPVSADESSAGESDIPVNFGGVTFFPEDYIYADLTGIILSQEPLDLEDLEHHHHHH | not soluble |
| MFISVLDLFKIGIGPSSSHTMGPMTAANVFRDHVDQLVSQTPDDLNYRVYCVLKGSLAFTGRGHATDRAVALGLHGHSPVSLAGEDVNALTAKLWATDTLQLTSGREIGFNPEDDIVFDKSDPLPQHPNGMIFYLLDEEGKKILSETFFSIGGGFICTLAEINQ | not soluble |
| MFKILRKERLAPGINLFEIESPRIAKHAKPGQFVMIRLHEKGERIPLTIADVDISKGSITIVAQEVGKTTRELGTYEAGDYILDVLGPLGKPSHIDYFGTVVMIGGGVGVAEIYPVAKAMKEKGNYVISILGFRTKDLVFWEDKLRSVSDEVIVTTNDGSYGMKGFTTHALQKLIEEGRKIDLVHAVGPAIMMKAVAELTKPYGIKTVASLNPIMVDGTGMCGACRVTVGGEVKFACVDGPEFDAHLVDWDQLMNRLAYYRDLEKISLEKWERERRMV | not soluble |
| MFKIVYPNAKDFFSFINSITNVTDSIILNFTEDGIFSRHLTEDKVLMAIMRIPKDVLSEYSIDSPTSVKLDVSSVKKILSKASSKKATIELTETDSGLKIIIRDEKSGAKSTIYIKAEKGQVEQLTEPKVNLAVNFTTDESVLNVIAADVTLVGEEMRISTEEDKIKIEAGEEGKRYVAFLMKDKPLKELSIDTSASSSYSAEMFKDAVKGLRGFSAPTMVSFGENLPMKIDVEAVSGGHMIFWIAPRLLEHHHHHH | soluble |
| MFKKLSVLALAMIISLSITACNSKENKANDESNTKVTTADDSKEKETLFVYSGAGLKKPMDEIAKKFEKENNVKVEYSYAGSAQLIAQIETSHKGDVFIVGSEPIYSKAFEKELVGEHKTVAHHTPAIVVPKGNPANIQKLEDLNKDGVKLILGDKESNAIGKTTQKILEKNNLKSINDNVVSTAATVNEMIVQLTSSKADATIATKDSVFGNEDVEVIEIAQDKNIDQLISAGIVNYSDKKDLANKFINYIESDEAKQIFKKYGFEPVK | not soluble |
| MFKLVGKEAFKVGDMKCIINVEALGTFAYEYSLDVNGKTFNKFKEEQNKRLHSWETTLSGHQWRVVLDKESMEIWANGNNIDTAGEFVDNGTVTHFELGKNPCKIIAQSSGKKKTGVTHTLYVNGEIVPSTVDKPNPSNQPGSS | not soluble |
| MFKRFRRLRLNENLRSMVRENSLSVNDLIYPLFVVNGTGIKKEISSMPDVFQMSLDEILKECQNVVNLGIKAIILFGVLENEKKDSCGSDALDDEGLVARSIREIKKNFPDLFIISDLCFCEYTDHGHCGIIDPKIKSVDNDATLEISAKQALVHARAGVDMIAPSGMMDGVITTLRKALDKEGFENLPIMAYSTKFASSYYGPFRDVAESAPSYGDRKSYQMDFANGKEALEESLEDEAQGADILMVKPALAYLDVVKEISLHSNLPLCIYNVSGEYAMLKAAKNAGVIDYEKVLYETIIAFKRAGAKLIITYHAKELAKMLKGEK | soluble |
| MFKRIGLISIALSLNTISFTSEACSALVFNKNKPATVAVNLDWKYREGAFVIHPRNAMMVSSVDYHSMHPLIWKSQYGSVIFHGGNRFKAGPSADGMNEKGLTASILMLDSSIYPSNSELPALKTTEWVQYILDNFQTVQEVIDDSSNYQLVADTYRGITMNVHLMVSDAEGKSAVFEYLDGKLVIHTQDNLTTPVLTNTDYKLSLALLEEYQDHGGSKALPGGYDSKSRFVRAAHYLKKLPSFIAKEEHIAYAFNGLNVVTQAPGTSSPTQLSMVFDIPTKTIYFRSINEAALRVIPMDSIDFDYLYQPIALNVYQHLSGDVTDKFQPMIG | not soluble |
| MFKSVAKLGKSPIFYLNSQRLIHIKTLTTPNENALKFLSTDGEMLQTRGSKSIVIKNTDENLINHSKLAQQIFLQCPGVESLMIGDDFLTINKDRMVHWNSIKPEIIDLLTKQLAYGEDVISKEFHAVQEEEGEGGYKINMPKFELTEEDEEVSELIEELIDTRIRPAILEDGGDIDYRGWDPKTGTVYLRLQGACTSCSSSEVTLKYGIESMLKHYVDEVKEVIQIMDPEQEIALKEFDKLEKKLESSKNTSHEK | soluble |
| MFLQHNNQLICNLEKMGLTENEAKAYVGLVSLGEATAREVHELTNVPRAKIYEVLKVLAKRGYLEVRQGSPTYFRAVDPKQVIGKIKDEFINCAIETLDQLNELSYELPRTSPVWCIQSEWGIKNRIREILNGVKEELIVFSSSPRFFQEFEAELKKLEKTCQLTFIISEPEKFESFPFEFRETTKEFREFLNNIVIDGIRYDEEFFMIADGKESIGVHSAGDKREAVVIKLPVVCYLQKMIYDRVLEPSFVKKNRKSA | not soluble |
| MFLTWENLFLTNQSRRRLKLLVVERSYNNVGNFLKEYFGGFFEIVNFDDLRLTMVDMVSLSSEYDVIVTDMILEQTTDSEILFFNQMAPSVVANRLTDM | not soluble |
| MFMSTDEVRRAFLSFFESKGHQIVESSSLVPANDPTLLFTNAGMNQFKDCFLGLEKRAYTRATTAQRCVRAGGKHNDLENVGFTARHHTFFEMLGNFSFGDYFKEDAIQYAWEFLTDVLQLPKERLLVTVYETDDEAFDIWNKKVGIPADRIIRIGDKKGGKKFDSDNFWQMGDTGPCGPCTEIFYDHGDHIWGGPPGSPEEDGDRFIEIWNNVFMQFNRHADGTMEPLPKPSVDTGMGIERISAIMQGVHSNYEIDVFQTLIKAAADAIGYQDLTNQSLRVVADHIRSCAFLIVDGVMPSNEGRGYVLRRIIRRAVRHGNKLGAQGAFFHKLVGPLAEVMGTAGVELKKQQALVEKVLRIEEENFGRTLDRGMSILNDALDQLSGQVLDGETVFKLYDTYGFPADLTNDVARERGFSIDEAGFEQAMEEQRQRAREAGQFGTDYNSLIKSATNTEFCGYTASRGQSVVREMFVEGAEVSTLSAGDKAIIVLDNTPFYAESGGQCGDTGVLKTDAGIFHVEDTQKLGNAIAHHGVIAQGVLATGDQVDAIVDEKRRAAISLNHSATHLLHAALRKVLGEHVAQKGSLVRAETLRFDFSHLEAMTAAEIKEVERLVNQEVRRNHSIETNIMNIDEAKAKGAMALFGEKYDDQVRVLSMGDFSTELCGGIHASNTGDIGLFKIISEGGIAAGIRRIEAVTGEGALDYLDAQQAQHDAKVSEMAAKAKLLEKEIQQLKDKLAAKESAGLINQVKQIAGVNVLVAQLNGADNKALRGMVDDLKNQLSSGIIMLGNVAEGKVGLIAGVTNDLTNKVKAGELVNMVALQVGGKGGGRPDMAQAGGTDAHALPSALESVDAWIAERL | not soluble |
| MFNKKENSSPDVFDTLIGVNTFLEGNIETEGTVRIDGKIKGNVKVKGDVYIGKDANINGNISANNVYMSGRVDGNIEAKGVLRILSTAQLYGDILVQSLISDEGSIFEGNCKMVSASNAQNSDGSVSKNNKNVKDKDGDKSHTSA | not soluble |
| MFPYFESVATASTEFHAIEPDPHMRRQAAEQANTQATPIHIESSPAEALPYYEDTFDVVITSMVFCTIPDIESAMSEITRVLKPGGELRFFEHVIDDGWRARLQSALAPLWKRLAGGCHLTRQTGTRLVADQSFDVVEIERLNLGITPIRPFVRGRLRKRSVSSTRLEHHHHHH | not soluble |
| MFQAQHLTKSFGDLVLFEDLSFSIERGEKVGLIARNGNGKTTLMNILTGIDSPDSGEVIYQNGIRRAYLPQLPQVLPGSTVLETCFGHNDEMTSLIAQWEEASARGDGKRMEELLPEMDALGAWEYEQRAREILTRLHLDDLHCTTDNLSGGELKRIALAGTLIGNPELLFLDEPTNHLDLDVIEWLEGYLSHQQIGLLLVTHDRYFLDRVCNRILELDNKQLYAYKGNYEYYLNKREERLEATERETSRAANLLRREAEWMHRRPQARGTKAKSRIDAFYELKEKAQPRHRDETLHLSEQGRYIGNKIFEAHKVCKAFGDRTILSDFDYIFSRYDKVGIVGPNGVGKTTFLRLLLGEEKPDSGYFDVGETVRFGYYSQKGMQFDENKRVIEAVQDIAEVIRNEKDGTTLSASALLTQFLFPPEKQYTPIHKLSGGEQRRLYLCTVLMKNPNFLILDEPTNDLDILTLNVLENYLSEFKGCVLVVSHDRFFMDKVVNHLFTFEGNGIVKDFPGNYTQYREYKQQEEAERQTVESSPSTRKAESEKPRTDAAERPRKLTFKEKQELERLEAELPKLEKEKAELESRMSSGTMATDELLTAGDRIAALIEEIDSKGMRWLELSDI | not soluble |
| MFQASMRSPNMEPFKQQKVEDFYDIGEELGSGQFAIVKKCREKSTGLEYAAKFIKKRQSRASRRGVSREEIEREVSILRQVLHHNVITLHDVYENRTDVVLILELVSGGELFDFLAQKESLSEEEATSFIKQILDGVNYLHTKKIAHFDLKPENIMLLDKNIPIPHIKLIDFGLAHEIEDGVEFKNIFGTPEFVAPEIVNYEPLGLEADMWSIGVITYILLSGASPFLGDTKQETLANITAVSYDFDEEFFSQTSELAKDFIRKLLVKETRKRLTIQEALRHPWITPVDNQQAMVRRESVVNLENFRKQYVRRRWKLSFSIVSLCNHLTRSLMKKVHLRPDEDLRNCESDTEEDIARRKALHPRRRSSTS | soluble |
